Values of other authors in article PMC10793677.

What was measured:
CD73 (Homo sapiens) = CD73 (Homo sapiens) (UniProt P21589); test: flow cytometry and SPR
CD73 (Mus musculus) = CD73 (Mus musculus) (UniProt Q61503); test: flow cytometry and SPR
Sequence of UniProt Q61503 (Q61503 29-551): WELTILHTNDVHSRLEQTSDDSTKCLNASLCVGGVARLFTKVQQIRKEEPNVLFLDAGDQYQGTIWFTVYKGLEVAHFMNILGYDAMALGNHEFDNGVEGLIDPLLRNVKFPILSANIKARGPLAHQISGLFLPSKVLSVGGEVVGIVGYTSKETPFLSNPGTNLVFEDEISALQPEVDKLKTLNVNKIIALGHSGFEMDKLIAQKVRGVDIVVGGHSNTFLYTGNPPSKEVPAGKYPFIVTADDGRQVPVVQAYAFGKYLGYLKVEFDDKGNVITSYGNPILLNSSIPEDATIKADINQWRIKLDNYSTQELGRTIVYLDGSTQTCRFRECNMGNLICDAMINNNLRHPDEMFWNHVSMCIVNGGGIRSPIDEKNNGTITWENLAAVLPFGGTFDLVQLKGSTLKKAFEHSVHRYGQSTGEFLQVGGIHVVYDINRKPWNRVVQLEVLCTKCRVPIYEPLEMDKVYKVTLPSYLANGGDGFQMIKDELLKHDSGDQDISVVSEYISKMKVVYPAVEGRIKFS

Sequence of UniProt P21589 (P21589 27-549): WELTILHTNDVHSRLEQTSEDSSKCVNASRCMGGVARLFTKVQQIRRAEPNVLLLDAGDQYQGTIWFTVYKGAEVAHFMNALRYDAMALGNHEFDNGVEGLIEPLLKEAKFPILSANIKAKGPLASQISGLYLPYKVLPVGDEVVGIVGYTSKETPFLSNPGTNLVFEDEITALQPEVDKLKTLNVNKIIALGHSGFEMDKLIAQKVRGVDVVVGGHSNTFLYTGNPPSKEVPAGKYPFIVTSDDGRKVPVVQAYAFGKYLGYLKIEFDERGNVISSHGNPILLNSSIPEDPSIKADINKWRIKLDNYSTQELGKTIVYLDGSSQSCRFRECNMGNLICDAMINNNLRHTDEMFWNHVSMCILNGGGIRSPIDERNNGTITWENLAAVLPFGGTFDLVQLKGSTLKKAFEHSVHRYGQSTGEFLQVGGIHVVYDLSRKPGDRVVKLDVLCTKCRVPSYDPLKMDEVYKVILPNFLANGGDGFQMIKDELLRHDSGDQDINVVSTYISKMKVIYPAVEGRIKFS

Substance: Oleclumab
- Kd (CD73 (Homo sapiens)): 0.154 nM
- Kd (CD73 (Mus musculus)): 0.113 nM
